In paper PMC10827179:

Tests used:
[1] = biological target: S. mutans CLC^F homologue encoded by ORF 1290 (SMU.1290) (Streptococcus mutans UA159); experiment: cross-linking
[2] = biological target: S. mutans CLC^F F-/H+ antiporter encoded by ORF 1289 (SMU.1289) (Streptococcus mutans UA159); experiment: cross-linking

| Substance | stoichiometry N [1] | stoichiometry N [2] |
| --- | --- | --- |
| S. mutans CLC^F homologue encoded by ORF 1290 (SMU.1290) (natural protein) | 2 |  |
| S. mutans CLC^F F-/H+ antiporter encoded by ORF 1289 (SMU.1289) (natural protein) |  | 2 |
